Tests used:
Test in all cases: Octet (BLI) binding, IgG captured on AHC tips, antigen at 100 nM
[1] = biological target: huLTBP3 proTGFβ1 (Homo sapiens, UniProt P01137+Q9NS15); conditions: IgG1-agly; for Hu LTBP3-proTGFβ1 Kon / Hu LTBP3-proTGFβ1 Koff: Table 9, cycle 3; for Hu LTBP3-proTGFβ1 Koff: 5-minute dissociation; for Affinity for human LTBP3 complexed with proTGFβ1: Table 8, Octet
Method in brief: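 Antibodies loaded at 1 μg/mL onto anti-human Fc sensors were exposed to each TGFβ1 complex at 100 nM in kinetics buffer. Association ran 3 min; dissociation was 3 min in one protocol and 5 min in another. KD came from a 1:1 fitting model.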

[2] = biological target: huGARP proTGFβ1 (Homo sapiens, UniProt P01137); conditions: for ForteBio IgG KD Hu GARP-proTGFβ1 (M) Avid: IgG1-agly, 1:1 fit; for ForteBio IgG KD Hu GARP-proTGFβ1 in solution (M) Avid: Table 10, same assay conditions as Table 9
Method in brief: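 Antibody loaded at 1 μg/mL onto anti-human Fc capture biosensors, then exposed to human GARP-proTGFβ1 at 100 nM in 1× kinetics buffer with 1000 rpm shaking. Association 3 min, dissociation 3 or 5 min; KD from 1:1 local full fit.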

[3] = biological target: huLTBP1 proTGFβ1 (Homo sapiens, UniProt P01137+Q14766); conditions: for Hu LTBP1-proTGFβ1 Kon / Hu LTBP1-proTGFβ1 Koff: Table 9, cycle 3; for Hu LTBP1-proTGFβ1 Kon / Hu LTBP1-proTGFβ1 Koff / Affinity for human LTBP1 complexed with proTGFβ1: IgG1-agly; for Hu LTBP1-proTGFβ1 Kon: 1:1 fit; for Hu LTBP1-proTGFβ1 Koff: 5-minute dissociation; for Response, binding to human LTBP-1 proTGFb1: Octet, antibody immobilized (loading sample); for Affinity for human LTBP1 complexed with proTGFβ1: Table 8, Octet
Method in brief: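 Antibodies were captured on anti-human Fc biosensors at 1 μg/mL (~7 nM), to a maximum response of 1 nm. Antigen complex was run at a single 100 nM in 1× kinetics buffer, shaking at 1000 rpm. Association was 3 min and dissociation 3 min (5 min in later rounds), with KD from a local, full 1:1 fit.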

[4] = Table 9, cycle 3, N.B. = non-binder under conditions of this assay
[5] = N.B. = non-binder under conditions of this assay
[6] = Table 8, P.F. = Poor Fit, N.B. = Non-binder under conditions of this assay

huLTBP3 proTGFβ1, sequence (P01137 30-390): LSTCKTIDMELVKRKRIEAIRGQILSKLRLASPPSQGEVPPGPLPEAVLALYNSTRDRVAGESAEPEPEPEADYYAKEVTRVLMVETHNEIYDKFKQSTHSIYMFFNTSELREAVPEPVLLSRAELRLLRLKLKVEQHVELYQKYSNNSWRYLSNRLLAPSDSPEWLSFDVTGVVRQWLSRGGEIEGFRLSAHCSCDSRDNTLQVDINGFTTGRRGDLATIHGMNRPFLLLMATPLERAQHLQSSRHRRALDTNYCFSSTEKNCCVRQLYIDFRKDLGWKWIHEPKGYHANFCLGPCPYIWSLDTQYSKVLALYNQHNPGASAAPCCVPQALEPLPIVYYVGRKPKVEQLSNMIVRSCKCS
huLTBP3 proTGFβ1, sequence (Q9NS15 44-1303): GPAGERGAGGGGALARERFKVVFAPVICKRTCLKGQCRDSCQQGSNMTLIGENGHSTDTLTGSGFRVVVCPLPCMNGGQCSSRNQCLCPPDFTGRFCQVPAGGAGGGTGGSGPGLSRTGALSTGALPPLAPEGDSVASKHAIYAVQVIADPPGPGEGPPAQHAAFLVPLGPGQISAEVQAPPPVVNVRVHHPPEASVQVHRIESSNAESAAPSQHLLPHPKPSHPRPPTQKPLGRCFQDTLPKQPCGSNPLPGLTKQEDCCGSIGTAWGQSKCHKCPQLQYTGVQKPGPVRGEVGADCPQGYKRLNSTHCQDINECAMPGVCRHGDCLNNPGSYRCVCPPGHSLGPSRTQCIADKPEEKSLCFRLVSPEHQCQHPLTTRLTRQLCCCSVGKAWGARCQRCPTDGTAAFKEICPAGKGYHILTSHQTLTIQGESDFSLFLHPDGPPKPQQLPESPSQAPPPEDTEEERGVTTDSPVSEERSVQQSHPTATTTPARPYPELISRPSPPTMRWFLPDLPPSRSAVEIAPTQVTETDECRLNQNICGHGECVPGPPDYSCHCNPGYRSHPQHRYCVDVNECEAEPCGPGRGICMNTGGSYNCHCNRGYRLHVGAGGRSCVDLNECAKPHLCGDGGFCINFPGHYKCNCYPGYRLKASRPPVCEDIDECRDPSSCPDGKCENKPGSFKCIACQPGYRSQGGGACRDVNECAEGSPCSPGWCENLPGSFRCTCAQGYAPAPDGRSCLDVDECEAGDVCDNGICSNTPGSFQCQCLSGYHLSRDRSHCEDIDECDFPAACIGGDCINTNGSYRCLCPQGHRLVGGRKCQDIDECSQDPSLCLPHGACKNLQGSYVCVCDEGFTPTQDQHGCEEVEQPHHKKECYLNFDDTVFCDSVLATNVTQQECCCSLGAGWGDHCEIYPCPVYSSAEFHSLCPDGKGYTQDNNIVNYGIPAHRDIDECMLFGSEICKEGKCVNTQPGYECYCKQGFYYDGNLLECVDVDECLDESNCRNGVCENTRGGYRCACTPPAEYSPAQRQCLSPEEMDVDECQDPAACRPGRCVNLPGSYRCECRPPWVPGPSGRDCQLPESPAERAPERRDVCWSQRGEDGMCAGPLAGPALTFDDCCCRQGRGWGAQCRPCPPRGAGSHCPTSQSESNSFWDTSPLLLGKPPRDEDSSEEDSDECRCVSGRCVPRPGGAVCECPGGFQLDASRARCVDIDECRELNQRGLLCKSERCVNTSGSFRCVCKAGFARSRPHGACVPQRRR
huGARP proTGFβ1, sequence (P01137 30-390): as the sequence (P01137 30-390) above
huGARP proTGFβ1, sequence (Q14392 18-627 partner limits assumed): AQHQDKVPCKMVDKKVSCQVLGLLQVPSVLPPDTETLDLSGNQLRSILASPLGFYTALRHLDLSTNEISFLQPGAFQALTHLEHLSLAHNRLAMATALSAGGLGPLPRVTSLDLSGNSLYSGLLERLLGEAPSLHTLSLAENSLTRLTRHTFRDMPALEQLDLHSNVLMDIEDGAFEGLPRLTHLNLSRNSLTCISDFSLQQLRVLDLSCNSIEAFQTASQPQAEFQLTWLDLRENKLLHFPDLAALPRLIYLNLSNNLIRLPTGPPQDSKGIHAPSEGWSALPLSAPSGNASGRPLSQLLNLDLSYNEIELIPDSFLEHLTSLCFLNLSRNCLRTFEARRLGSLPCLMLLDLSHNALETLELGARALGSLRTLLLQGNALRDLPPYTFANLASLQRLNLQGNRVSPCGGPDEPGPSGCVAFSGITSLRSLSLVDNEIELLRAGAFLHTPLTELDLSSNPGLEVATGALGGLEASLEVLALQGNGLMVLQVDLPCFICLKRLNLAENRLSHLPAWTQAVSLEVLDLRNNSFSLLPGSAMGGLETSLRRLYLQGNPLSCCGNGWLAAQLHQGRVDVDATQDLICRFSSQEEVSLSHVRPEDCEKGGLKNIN
huLTBP1 proTGFβ1, sequence (P01137 30-390): as the sequence (P01137 30-390) above
huLTBP1 proTGFβ1, sequence (Q14766 347-1721 limits assumed): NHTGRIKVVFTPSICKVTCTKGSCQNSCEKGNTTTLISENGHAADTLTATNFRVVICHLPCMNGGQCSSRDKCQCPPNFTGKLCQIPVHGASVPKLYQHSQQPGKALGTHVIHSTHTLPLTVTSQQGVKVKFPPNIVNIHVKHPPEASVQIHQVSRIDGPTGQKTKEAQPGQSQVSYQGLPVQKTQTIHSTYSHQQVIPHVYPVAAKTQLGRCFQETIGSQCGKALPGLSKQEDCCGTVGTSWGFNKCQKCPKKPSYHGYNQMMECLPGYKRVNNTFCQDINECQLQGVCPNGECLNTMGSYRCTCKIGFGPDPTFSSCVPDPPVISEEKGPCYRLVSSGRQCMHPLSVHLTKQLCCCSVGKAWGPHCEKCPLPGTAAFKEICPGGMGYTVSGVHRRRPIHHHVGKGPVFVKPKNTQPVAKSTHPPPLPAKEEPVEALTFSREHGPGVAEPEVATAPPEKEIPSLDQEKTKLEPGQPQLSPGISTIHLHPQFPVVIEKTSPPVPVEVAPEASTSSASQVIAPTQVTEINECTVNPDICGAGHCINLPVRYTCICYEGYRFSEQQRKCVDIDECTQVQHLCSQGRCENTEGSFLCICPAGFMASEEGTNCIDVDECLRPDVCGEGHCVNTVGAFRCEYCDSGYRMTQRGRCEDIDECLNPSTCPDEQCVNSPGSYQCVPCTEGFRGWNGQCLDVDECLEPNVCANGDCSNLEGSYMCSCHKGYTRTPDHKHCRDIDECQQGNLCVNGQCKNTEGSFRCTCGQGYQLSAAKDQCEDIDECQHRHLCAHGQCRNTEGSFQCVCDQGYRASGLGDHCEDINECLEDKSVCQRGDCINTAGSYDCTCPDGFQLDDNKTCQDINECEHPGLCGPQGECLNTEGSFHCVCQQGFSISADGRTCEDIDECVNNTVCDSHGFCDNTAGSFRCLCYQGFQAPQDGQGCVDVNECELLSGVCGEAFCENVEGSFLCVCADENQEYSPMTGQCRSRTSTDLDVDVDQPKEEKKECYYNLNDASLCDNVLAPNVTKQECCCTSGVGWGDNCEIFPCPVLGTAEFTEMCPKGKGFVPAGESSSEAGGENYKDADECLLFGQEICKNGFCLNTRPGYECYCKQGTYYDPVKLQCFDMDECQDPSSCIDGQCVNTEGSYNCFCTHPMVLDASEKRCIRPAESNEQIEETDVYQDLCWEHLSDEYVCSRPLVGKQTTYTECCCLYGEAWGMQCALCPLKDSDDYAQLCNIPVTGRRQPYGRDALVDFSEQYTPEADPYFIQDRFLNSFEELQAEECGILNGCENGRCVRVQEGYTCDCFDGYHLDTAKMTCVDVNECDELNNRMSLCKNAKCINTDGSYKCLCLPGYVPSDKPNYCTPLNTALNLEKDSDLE

B1: SR-AB63: cycle 3 antibody, lineage SR-AB26; CDRs SEQ ID NO: 292-297; HCVR SEQ ID NO: 360, LCVR SEQ ID NO: 361 (antibody, V domains shown)
VH: QLQLQESGPGLVKPSETLSLTCTVSGGSIRSSSYYWGWIRQPPGKGLEWIGSISYSATTYYNPSLKSRVTISVDTSKNQFSLKLSSVTAADTAVYYCAGDPSYDSIAGMQVWGQGTTVTVSS
VL: DIQLTQSPSSLSASVGDRVTITCRASQSISSYLNWYQQKPGKAPKLLIYAASNLQSGVPSRFSGSGSGTDFTLTISSLQPEDFATYYCQQSFDWPLTFGGGTKVEIK
- Hu LTBP3-proTGFβ1 Kon ([1]; 1:1 fit): 159000 M⁻¹ s⁻¹
- Hu LTBP3-proTGFβ1 Koff [1]: 7.84e-05 s⁻¹
- ForteBio IgG KD Hu GARP-proTGFβ1 (M) Avid [2, 4]: N.B.
- ForteBio IgG KD Hu GARP-proTGFβ1 in solution (M) Avid [2, 5]: N.B.
- Hu LTBP1-proTGFβ1 Kon [3]: 118000 M⁻¹ s⁻¹
- Hu LTBP1-proTGFβ1 Koff [3]: 7.24e-05 s⁻¹

B2: SR-AB42: cycle 3 antibody, lineage SR-AB23; CDRs SEQ ID NO: 166-171; HCVR SEQ ID NO: 318, LCVR SEQ ID NO: 319 (antibody, V domains shown)
VH: QVQLVESGGGVVQPGRSLRLSCAASGFTFRSYVMHWVRQAPGKGLEWVAVISHEGSLKYYADSVKGRFTISRDNSKNTLYLQMNSLRAEDTAVYYCARPRIAARRGGFGYWGQGTLVTVSS
VL: NFMLTQPHSVSESPGKTVTISCTRSSGNIDNNYVQWYQQRPGSSPTTVIYEDNQRPSGVPDRFSGSIDSSSNSASLTISGLKTEDEADYYCQSYDYDTQGVVFGGGTKLTVL
- Hu LTBP3-proTGFβ1 Kon ([1]; 1:1 fit): 232000 M⁻¹ s⁻¹
- Hu LTBP3-proTGFβ1 Koff [1]: 6e-05 s⁻¹
- ForteBio IgG KD Hu GARP-proTGFβ1 (M) Avid [2, 4]: N.B.
- ForteBio IgG KD Hu GARP-proTGFβ1 in solution (M) Avid [2, 5]: N.B.
- Hu LTBP1-proTGFβ1 Kon [3]: 154000 M⁻¹ s⁻¹
- Hu LTBP1-proTGFβ1 Koff [3]: 6e-05 s⁻¹

B3: SR-AB23: second-round (CDR-H3 mutagenesis) antibody, lineage SR-AB14; CDRs SEQ ID NO: 116-121 (antibody, V domains shown)
VH: QVQLVESGGGVVQPGRSLRLSCAASGFTFRSYVMHWVRQAPGKGLEWVAVISHEGSLKYYADSVKGRFTISRDNSKNTLYLQMNSLRAEDTAVYYCARPRIAARRGGFGYWGQGTLVTVSS
VL: NFMLTQPHSVSESPGKTVTISCTRSSGNIDNNYVQWYQQRPGSSPTTVIYEDNQRPSGVPDRFSGSIDSSSNSASLTISGLKTEDEADYYCQSYDSDNQGVVFGGGTKLTVL
- Affinity for human LTBP3 complexed with proTGFβ1 [1]: single digit nM
- ForteBio IgG KD Hu GARP-proTGFβ1 (M) Avid [2, 6]: N.B.
- Response, binding to human LTBP-1 proTGFb1 [3]: 0.3449 nm
- Affinity for human LTBP1 complexed with proTGFβ1 [3]: single digit nM

B4: SR-AB22: second-round (CDR-H3 mutagenesis) antibody, lineage SR-AB14; CDRs SEQ ID NO: 108-113 (antibody, V domains shown)
VH: QVQLVESGGGVVQPGRSLRLSCAASGFTFRSYVMHWVRQAPGKGLEWVAVISHEGSLKYYADSVKGRFTISRDNSKNTLYLQMNSLRAEDTAVYYCAVPRIAARRGGFGYWGQGTLVTVSS
VL: NFMLTQPHSVSESPGKTVTISCTRSSGNIDNNYVQWYQQRPGSSPTTVIYEDNQRPSGVPDRFSGSIDSSSNSASLTISGLKTEDEADYYCQSYDSDNQGVVFGGGTKLTVL
- Affinity for human LTBP3 complexed with proTGFβ1 [1]: single digit nM
- ForteBio IgG KD Hu LTBP3-proTGFβ1 (M) Avid ([1]; Table 8, 1:1 fit, P.F. = Poor Fit, N.B. = Non-binder under conditions of this assay): P.F.
- ForteBio IgG KD Hu GARP-proTGFβ1 (M) Avid [2, 6]: P.F.
- Response, binding to human LTBP-1 proTGFb1 [3]: 0.4317 nm
- Affinity for human LTBP1 complexed with proTGFβ1 [3]: single digit nM
